Molecular target: Flt1/VEGFR1 (human) (UniProt P17948)
Experiment: cell-based or functional assay

Chain of UniProt P17948 (P17948 27-1338): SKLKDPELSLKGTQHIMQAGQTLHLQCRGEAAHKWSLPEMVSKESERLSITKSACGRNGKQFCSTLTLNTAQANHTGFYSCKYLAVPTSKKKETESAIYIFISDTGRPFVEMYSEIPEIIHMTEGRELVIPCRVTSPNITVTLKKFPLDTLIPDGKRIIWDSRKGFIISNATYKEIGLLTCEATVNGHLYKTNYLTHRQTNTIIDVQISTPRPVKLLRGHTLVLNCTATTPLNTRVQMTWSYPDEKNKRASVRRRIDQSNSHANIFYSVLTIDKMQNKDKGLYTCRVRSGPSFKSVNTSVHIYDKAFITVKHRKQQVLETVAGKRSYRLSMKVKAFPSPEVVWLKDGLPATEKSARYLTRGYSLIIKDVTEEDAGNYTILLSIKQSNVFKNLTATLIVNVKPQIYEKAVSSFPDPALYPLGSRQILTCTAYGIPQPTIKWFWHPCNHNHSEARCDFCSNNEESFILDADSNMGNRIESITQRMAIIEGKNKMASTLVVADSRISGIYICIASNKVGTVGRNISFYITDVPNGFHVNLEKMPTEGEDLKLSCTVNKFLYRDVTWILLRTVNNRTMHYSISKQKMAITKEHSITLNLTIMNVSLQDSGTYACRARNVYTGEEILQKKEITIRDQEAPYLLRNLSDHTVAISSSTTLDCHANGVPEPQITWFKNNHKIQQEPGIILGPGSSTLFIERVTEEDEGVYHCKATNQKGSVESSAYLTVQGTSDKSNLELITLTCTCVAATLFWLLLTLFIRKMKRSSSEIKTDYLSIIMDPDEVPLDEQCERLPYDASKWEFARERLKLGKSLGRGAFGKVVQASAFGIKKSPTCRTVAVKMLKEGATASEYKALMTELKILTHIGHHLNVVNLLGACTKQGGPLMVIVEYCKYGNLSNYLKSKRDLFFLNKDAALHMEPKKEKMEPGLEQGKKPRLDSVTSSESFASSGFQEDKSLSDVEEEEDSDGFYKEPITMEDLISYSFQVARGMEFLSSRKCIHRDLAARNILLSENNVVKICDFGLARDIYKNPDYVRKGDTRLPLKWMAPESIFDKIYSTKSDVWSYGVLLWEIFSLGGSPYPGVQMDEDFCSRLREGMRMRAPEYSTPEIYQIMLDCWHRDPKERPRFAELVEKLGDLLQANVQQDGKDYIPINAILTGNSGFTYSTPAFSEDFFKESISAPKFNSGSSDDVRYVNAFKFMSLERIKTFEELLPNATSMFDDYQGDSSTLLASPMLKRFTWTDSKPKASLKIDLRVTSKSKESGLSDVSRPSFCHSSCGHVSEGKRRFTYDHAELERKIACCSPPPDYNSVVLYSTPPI

HUVEC buds containing multiple filopodia: 250%
Substance: placental growth factor (ligand)

Source: patent US20110223183A1
